# Laboratory results: patent US20220259593A1, “CONTROL OF MAMMALIAN GENE DOSAGE USING CRISPR” (The Regents of the University of California, priority 2019, published 2022)
# Residue numbers refer to the chain shown, from its start.
# B1: cr590 (nucleic acid)
# guide: GTTTAAGAGCTAAGCTGGAAACAGCATAGCAAGTTTAAATAAGGCTAGTCCGTTATCAACTTGACAAAGTGGCACCGAGCCGGTGCT
# modifications: listed as DNA, chemistry not fully specified
# B2: cr554 (nucleic acid)
# guide: B1 guide with A32G, T56C, C65A, G71A, C80T
# modifications: listed as DNA, chemistry not fully specified
# B3: cr816 (nucleic acid)
# guide: B1 guide with C65A, G71T, C80T
# modifications: listed as DNA, chemistry not fully specified
# B4: cr871 (nucleic acid)
# guide: B1 guide with G44C, C50G, C65A, C80T
# modifications: listed as DNA, chemistry not fully specified
# B5: cr435 (nucleic acid)
# guide: B1 guide with A31C, T53G, C65A, C80T
# modifications: listed as DNA, chemistry not fully specified
# B6: cr407 (nucleic acid)
# guide: B1 guide with G44C, C50G, T61C, C65A, A68G, C75T, C80T, G83A
# modifications: listed as DNA, chemistry not fully specified
# B7: cr289 (nucleic acid)
# guide: B1 guide with T62G, C65A, A67C, C80T
# modifications: listed as DNA, chemistry not fully specified
# B8: cr162 (nucleic acid)
# guide: B1 guide with C65A, C80T, T84A
# modifications: listed as DNA, chemistry not fully specified
# B9: cr543 (nucleic acid)
# guide: B1 guide with T35C, C65A, C80T
# modifications: listed as DNA, chemistry not fully specified
# B10: cr919 (nucleic acid)
# guide: B1 guide with A59C, T62G, C65A, A67C, T70G, C80T
# modifications: listed as DNA, chemistry not fully specified
# B11: cr420 (nucleic acid)
# guide: B1 guide with C65A, G72T, C73G, G77T, C80T, C81A, G85C, C86A
# modifications: listed as DNA, chemistry not fully specified
# B12: cr601 (nucleic acid)
# guide: B1 guide with C30A, C65A, C80T
# modifications: listed as DNA, chemistry not fully specified
# B13: cr391 (nucleic acid)
# guide: B1 guide with G44C, C50G, C65A, C75A, C80T, G83T
# modifications: listed as DNA, chemistry not fully specified
# B14: cr362 (nucleic acid)
# guide: B1 guide with C65A, C76A, C80T
# modifications: listed as DNA, chemistry not fully specified
# B15: cr916 (nucleic acid)
# guide: B1 guide with G44A, C50T, C65G, C80T
# modifications: listed as DNA, chemistry not fully specified
# B16: cr697 (nucleic acid)
# guide: B1 guide with A28T, T46G, A64C, C65A, C80T
# modifications: listed as DNA, chemistry not fully specified
# System: K562 CRISPRi cells
# Assay: Constant region variant library pooled growth screen, K562
# Assay type: cell-based, human
# Settings: sgRNA constant region variants; activity relative to the original, un-modified constant region cr995
# Procedure, shortened: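 Growth screens in K562 CRISPRi cells were harvested 4-8 days post-selection at >2000× library coverage. Each variant's phenotype was referenced to the unmodified constant region with the same targeting sequence.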
molecule,measurement,value
B1,Mean relative activity,0.8361
B2,Mean relative activity,0.8332
B3,Mean relative activity,0.8315
B4,Mean relative activity,0.8313
B5,Mean relative activity,0.8281
B6,Mean relative activity,0.8278
B7,Mean relative activity,1.102
B8,Mean relative activity,0.8263
B9,Mean relative activity,0.8231
B10,Mean relative activity,1.056
B11,Mean relative activity,0.8229
B12,Mean relative activity,0.8216
B13,Mean relative activity,0.8216
B14,Mean relative activity,0.8214
B15,Mean relative activity,0.8207
B16,Mean relative activity,0.8183
